The results in this text go back to PMC9210341.

Assay in all cases: SPR
(In general: SPR reads the build-up and loss of mass on a sensor chip optically.)

The target in assay [1] is equine angiotensin converting enzyme 2 (residues 19-615) (horse (equine)).
Assay [2] concerns the target SARS-CoV-2 Beta variant receptor binding domain (residues 319-541) (SARS-CoV-2 (Beta variant)) (UniProt P0DTC2).
For assay [3], the target named is SARS-CoV-2 Delta variant receptor binding domain (residues 319-541) (SARS-CoV-2 (Delta variant)) (UniProt P0DTC2).

Substance “SARS-CoV-2 prototype receptor binding domain (residues 319-541) (from UniProt P0DTC2 319-541) (domain or fragment)” returned a fold lower affinity than hACE2 with the SARS-COV-2 PT-RBD in assay [1] of 32.2 fold.
Take “equine angiotensin converting enzyme 2 (residues 19-615) (from UniProt A0A9L0TPT7 19-615) (receptor)”: the fold decrease in affinity against the SARS-CoV-2 PT-RBD in assay [2] amounted to 4.1 fold; in assay [3], 2 fold.
